Columns and labels:
human IL-17A [1] = target: T1, human IL-17A (human, UniProt Q16552 20-155, limits assumed); experiment: blocking ELISA, IL-17RA coated; control IgG pre-mixed with human IL-17A 0.1 ug/ml; bound IL-17A detected
T1 construct: Bought from R&D Systems; also called IL-17 antigen (human IL17A)
T1 sequence (looked up): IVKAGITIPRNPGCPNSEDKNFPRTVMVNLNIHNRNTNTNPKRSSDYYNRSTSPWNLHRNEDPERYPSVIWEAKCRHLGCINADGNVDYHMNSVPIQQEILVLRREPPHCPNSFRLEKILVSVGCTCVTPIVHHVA

human IL-17A [2] = target: T1, human IL-17A; experiment: blocking ELISA, IL-17RA coated; control IgG pre-mixed with human IL-17A 0.1 ug/ml; bound IL-17A detected (unblocked signal)
human IL-17A [3] = target: T1, human IL-17A; experiment: blocking ELISA, IL-17RC coated; control IgG pre-mixed with human IL-17A 0.1 ug/ml; bound IL-17A detected (unblocked signal)
human IL-17A [4] = target: T1, human IL-17A; experiment: blocking ELISA, IL-17RC coated; control IgG pre-mixed with human IL-17A 0.1 ug/ml; bound IL-17A detected

Normal human IgG (antibody) was tested, and the Blocking % (human IL-17A [1]) was 0%, the OD450 (human IL-17A [2]) was 1.39 OD450 and the OD450 (human IL-17A [3]) was 0.487 OD450. The Blocking % (human IL-17A [4]) was 0%.

Reference: patent publication US20210309735A1 (published 2021)
